This series can be described thus: soluble on expression in E. coli; label from the status in PepcDB or PDB records.
For the sequence “MSLYGGIPTNLVSGMSSAGAICTTQIRDAREREKREIGLLNDRLADYIEKVRFLKAQNHVLSHDIEILRRGFSGGGHISSFFESEISNCTVISERILSSRTKFQADITGLEGEIEIYRKKWLEALKVVRSHREDHHVNLDKLAEVEAQIALFNRKIRIVEEDVLRIRRETGGIQNDIGRIHSQIHAEIALKNERHHSVQMLLQRVQVIQTENSSRIEQELIYIHRDTTLENRDYFRQELQAAMRDIRANYEAMSIRSREDIEIAYRKRIDEIRVIPAHVHIEDYREELLSIRTTLSTTHSRLAEIESRNAWLLTTITDLKHQQAEEARIFEATLDAKQATYEQFKERCTELSIQMEKLCDHETSLQAELERYRVLLNGANVTTYVSNSTGAAGYRSSTHVATTTTTTTNGYSSGYTAGGYTSGGYTTGGYTRGITAGGAVGGISTGGYIGRSSSSHGISVGGNIGGVSVGGHINGYHASGDISAAGRHHESSYSYSSSNN”, the “soluble on expression in E. coli” value is “not soluble”. The same measure for “MLLSPPTNCRFFCFLYFPKVSSSSWEEDGFDARTLLSTPTDSSGFSLYVFSVLFCFSNLL”: “not soluble”.

“SQKPCKENEGKPKCSVPKREEKRPYGEFERQQTEGNFRQRLLQSLEEFKEDIDYRHFKDEEMTREGDEMERCLEEIRGLRKKFRALHSNHRHSRDRPYPI”: the “soluble on expression in E. coli” value is recorded as “soluble”. Then “MPEGKIIKALSGFYYVLDESEDSDKVIQCRGRGIFRKNKITPLVGDYVVYQAENDKEGYLMEIKERTNELIRPPICNVDQAVLVFSAVQPSFSTALLDRFLVLVEANDIQPIICITKMDLIEDQDTEDTIQAYAEDYRNIGYDVYLTSSKDQDSLADIIPHFQDKTTVFAGQSGVGKSSLLNAISPELGLRTNEISEHLGRGKHTTRHVELIHTSGGLVADTPGFSSLEFTDIEEEELGYTFPDIREKSSSCKFRGCLHLKEPKCAVKQAVEDGELKQYRYDHYVEFMTEIKDRKPRY”, with “not soluble”; and “MTSVGPGQPQKELIRAQNGTYEVTKPLATGTFGSIYKVKRESDGKFFAVKCEALNMKSSLLRQMSVVLASIHHPSPFFTNIEERGTVPNRFLFIVMPLYGENLYELMMNTNKDRKFSMATGLHLAEQTLAAIRDLHRNGFIHRDIKPSHFCIGREIDGQHHQVYLLDFGLCKRPRFVKKNDEAEEQMRKNAIHYRGVVKYASVHAHQGKNLGYKDDMESWWYMVLEFFLGALPWALLNKESEQDVLHLKRRITAPMVASVWRTTPETTAGFFDLLTIIREPKDVAEFVEYDRIADGIQKLFEKSKSNTQEPPDWDCMTDYKGPGYQQVLMIAPPEVGLKPEMDFGKSDPGAGGESGEQPKKEDVDKKKKKKKKSKKKGKSNNKTTSAEEQKGGKCAPPSRVRDERRETRDETVCEIETRSR”, with “not soluble”; and “MSRVCQVTGKRVQTGNNVSHANNKTRRRFLPNLHKRRFWVASENRWVKLRVSTCAVRTIDKNGIDAVLAELRASGEKVLEHHHHHH”, with “not soluble”.

As to “MGSDKIHHHHHHMSSSSLSSTSTRVTYAVGDFVYFDDTSATDAPYQIRKIEELVKTEKGGVDARCVVYLRRRDIPQHLLKIADQAQRRFDNYYEVDKKKPENFTTKGFIVVNGASEAAPEAAPEATEASAETSETKVKEDTDDVAEKMEEDEECPAPVGQGRTSSTEEPSASDAPAATAKDKKEEKEAKENAKNLKETAEAEATKLIDWGDGGLPLGVDKLTPDQRLKLRQHEIFMTRQSEILPAAAIRGKCRVVLLGDGEEAQNYLPLDDTFYHSLVYDPNAQTLLADK”, the “soluble on expression in E. coli” value is “not soluble”. Consider “MAGRVKWVTDIEKSVLINNFEKRGWIQVTENEDWNFYWMSVQTIRNVFSVETGYRLSDDQIVNHFPNHYELTRKDLMVKNIKRYRKELEKEGSPLAEKDENGKYLYLDFVPVTYMLPADYNLFVEEFRKSPSSTWIMKPCGKAQGKGIFLINKLSQIKKWSRDSKTSSFVSQSTKEAYVISVYINNPLLIGGRKFDLRLYVLVSTYRPLRCYMYKLGFCRFCTVKYTPSTSELDNMFVHLTNVAIQKHGEDYNHIHGGKWTVNNLRLYLESTRGREVTSKLFDEIHWIIVQSLKAVAPVMNNDKHCFECYGYDIIIDDKLKPWLIEVNASPSLTSSTANDRILKYNLINDTLNIAVPNGEIPDCKWNKSPPKEVLGNYEILYDEELAQGDGAERELRNRPGQPVGPRAGRSRDSGRSVLTTWK”, for which the “soluble on expression in E. coli” value is “not soluble”. Then “MKKAADRPTSAVNGRHESPATSTNNTQNSGTPSLNGQDPLRSTSSSPLFGTEPLPEDDHASCPYCQQDFRKPRVLDCLHSMCEDCIIAQLDGHLQAKSAAIEEKKRATAAMLDCELETPKVKERPTPPGVIRCPICSQESHVGNDVRYVHAMLLDFVRLAEMKEVEVEKMVAHHRKPCTACKSEQEAIAFCDQCSSDLCENCTTAHTVMNLFQGHTVTTFADLRQPGAHPELRQVMCSTHNQHMRYLCAACETAACKQCLEVDHLNHKIIDINELVINAIREDVTSTVDRVEKKYNNSVADMNSLPDKSQQLNEQYEIAKYRVDKHYEELRNSIEEAYQKSVNDLEEARIRQESNIDEMYRKSQVNEARVHDAINFTRRLLTKGNGLELVVSRKKVIQQFGNLSHAIPSHGHQVELEFYTPSKKQIDHFVHQLTGTVIGRVIQPTVKDVGNATAASTDRSERGGSQPGGGRSSSAANPSQQDEWGRPVYSQNPQLGAIGGERKKNTQNGTNGTRGDSNAFGGWPPSSHPPESTTPPPVTGPQTMITGAPTQTAAPIVSQQQLSNLPNAAAMAAAAAGMRPDLVALAANHMDLAALTNGSTNGSQTPLPESIFPAMWNARQGLPAVATPTTTGLSTNASAAYMQQKLAAAQLQALASHRLNPQIMSMNNLRTNQTIQEFLAMNAMGNLSLNPQLTSAAAAALAATAAANSAVTTTASDVGQSQNSANAQRVSDLKVHSVFGTSQQGSTIRELHCPSGFCLSDTDDILIADTNNHRVVVCGPPHPWKIGRPGTDDGQLCFPRKVIALRGEAVRYVVLDKGGDGKTRAQIFEARGEFVKRLNMMALVPRGGIEVSAAAATPNGQLLLVDTAGFVYSIDVDAPRVTFWFDASTQLGEASDVAMFDNLIYITDFKHHCVQVYTSEGKFIRKMGEPSQTPYPIGIDVSKAGEVLVADTHGNHLHVVVFSPEGQHIHSFTHNEFRLSRCVGLRIAKSGHIVTLCKHNHTLFVFKPLILPNGLPVPTPVPHATSLISKFQ”, with “not soluble”; and “MAHHHHHHMKRFFKSDGTPYNRDAANNLYGSEHTHRGGVEALSEGVAAGQYGEHKPRAIMFVNKRPVEIIPQEENLLEVLEREGIRVPKFCYHPILSVAGNCRMCLVQVDGTQNLVVSCATVALPGMSIITDSRLVRDAREGNVELILINHPNDCPICEQATNCDLQNVSMNYGTDIPRYKEDKRAVQDFYFDPQTRVVLNRCIHCTRCVRFLNEHAQDFNLGMIGRGGLSEISTFLDELEVKTDNNMPVSQLCPVGKIYLGDADENNLIAEQLDVSYESECGDRGTVTLGK”, with “not soluble”; and “GQKESQTGKGMKIVTSFYPIYAMVKEVSGDLNDVRMIQSSSGIHSFEPSANDIAAIYDADVFVYHSHTLESWAGSLDPNLKKSKVKVLEASEGMTLERVPGLEDVEAGDGVDEKTLYDPHTWLDPEKAGEEAQIIADKLSEVDSEHKETYQKNAQAFIKKAQELTKKFQPKFEKATQKTFVTQHTAFSYLAKRFGLNQLGIAGISPEQEPSPRQLTEIQEFVKTYKVKTIFTESNASSKVAETLVKSTGVGLKTLNPLESDPQNDKTYLENLEENMSILAEELK”, with “soluble”. Then “MQEHFHFTTDPAKLQKQYAAIFCFVSAQLSLIQMYLHRRNRHLVKQEDEVVMAVHLLGKLLGFSSERAWHRFVTGNLFTNGSFLERSRYNRRCRALGFAVKWIRHELAKRGQHHAYAVVDSLPLPLCHPARMQRVKRFRGIADMGYCASKKQWYYGFKLHLQVTHQGLAMGYVVTEASCHDVKAAETVMTQIPHPYNFGDKGYISRALREKLYEEHQAAFWTPSRHNQKHGPSKAWEEWIRKKRKVIETVFSILVDQYRITDIRANSIAGFEVALDGILVAYSLVTLGLVER”, with “not soluble”. The same measure for “MGSDKIHHHHHHMNIRKYIWAYVVAMALICPGVKAQEQITIGVIQYDVRDIDKSFKALHEQGFGSCELNYSEKRFTKELAEQVKAASEKHRIRVTTLVGVPGSKSTWNFRQGPATIGLVPIDERFEKLDLYRKMIDFCVQAGIPAMHSHFGFIPEDPSSAQYKDFIEVMRGLATYAKERNVLIYFETGQETPITLIRAIRDIGTGNLFINCDLANLLMYGKSNSLDAVKLFGNLIKEFHAKDGKYPDPNNPYELGHEVPIPTGDVDFPAVIAELKKQGFKGAITIECELNGTRHDYVIQTRKYLQELLDR”: “not soluble”; for “MGHHHHHHSHMASVSSATFSGHGARSLLQFLRLVGQLKRVPRTGWVYRNVQRPESVSDHMYRMAVMAMVIKDDRLNKDPEAMKQITQLLPEDLRKELYELWEEYETQSSAEAKFVKQLDQCEMILQASEYEDLEHKPGRLQDFYDSTAGKFNHPEIVQLVSELEAERSTNIAAAASEPHS”: “soluble”; for “MFLVDSHCHLDGLDYESLHKDVDDVLAKAAARDVKFCLAVATTLPGYLHMRDLVGERDNVVFSCGVHPLNQNDPYDVEDLRRLAAEEGVVALGETGLDYYYTPETKVRQQESFIHHIQIGRELNKPVIVHTRDARADTLAILREEKVTDCGGVLHCFTEDRETAGKLLDLGFYISFSGIVTFRNAEQLRDAARYVPLDRLLVETDSPYLAPVPHRGKENQPAMVRDVAEYMAVLKGVAVEELAQVTTDNFARLFHIDASRLQSIR”: “soluble”. On to “MGSDKIHHHHHHMKEYDKLSIRLVQILSKFNNGESLSAQELAQEFNVDTRTIQRDLNERLTFMPIKKENGRYVLESFALGKLSFKDIQNFATLSGIAELYPKLDQGFIVDLLSHRVNKVLMVKNEGFQKVDYELFKDLSVAILKHNVLNFFYKEKERQIKPYKLVNYKGIWYLLGDENDKLKHFNLDKISKLRTKNENFIPNEKLEEQIQNDPNIWLGESKEVILKLDKNAKEYFFRKEILSNYQIIDKDETSYTLSTQVSYEDEILHLVKQWIPYIKILAPIELKIRLEDILKSYLNNLSK”, for which the “soluble on expression in E. coli” value was “not soluble”. Then “MGSDKIHHHHHHMSSWEQRSHYLIEVAQRSLIGHKTFDLCRSHLVAASQISKGTIYNHFTTEADLVVAVACAEYEEWLAAAKRDMQRYPDPLTRFLYHHCYRLHQMLSQQRYVIERVMPNQALLLQATDSYRQRFEKISTEYNHWNRLTISEIGDIPGFNRAELVKDYLRGAMINSDDANRQADDVQLYCQFSYALSQLMGHSDKRIPTKPAFVHWLSHLPSTSAISAV”, with “not soluble”. For “MGSDKIHHHHHHMHVDIELPLGRATALQRLRAQGFCVLTPAALETLTGMPLDAFDMMLPYWEELAPDLHLKDGGHYRYRRHGCFMQTLQPGQLETVQHRAHWQPTTYNALHGGMERWFEPLSNEMIHLPSWSALLVALGELFAKLRAPQGGRWYIEAHPFRIDTEGGVGRPTPEGAHRDGVDFVAVVFIGRQGVRGGETRVFDAAGPQGVRFTLEQPWTVLLLDDQQVIHESTPLLPLDPADPAVPAHRDTLVLTYRSGGFQAPA”, the “soluble on expression in E. coli” value was “not soluble”. Take “MPDSTRQPSAPVRDRLQQYGLSETEAETYLAVVEKGPATARTVAETAGVSKSYVYDICDSLAVDGFVSVDDHRTPTVIRATPPSEAFSALKRELDTLEAAVQTRYEDTAAENNTFEVVKSRPTIVKRLEQHIEAADCEVILQIPARRLPDIRDPLRRARERGILVLLTLSSYDRATMELDLKEIANAVRIGLDGAPSLLATDQQRGFVSPSTMLSWDHDETNAITFTQEAVAAVLVGSYLGNYWPIGEEVLVSRPPSLPARYDMFRPVVFTTTLALRAGESVVADLYARPTGSDDDFEVISGEVVDVRQNLVAPHNSDFGFENSLVVDTGDSRITVGGYGAFLEDYEVKHTTLRRA”: the “soluble on expression in E. coli” value is reported as “not soluble”.

“MCNTNMSVPTDGAVTTSQIPASEQETLVRPKPLLLKLLKSVGAQKDTYTMKEVLFYLGQYIMTKRLYDEKQQHIVYCSNDLLGDLFGVPSFSVKEHRKIYTMIYRNLVVVNQQESSDSS”: the “soluble on expression in E. coli” value is given as “soluble”.

(Values after the DeepSol protein solubility set.)
